The record followed here is PMC5655142, “Anti-diabetic drug binding site in a mammalian KATP channel revealed by Cryo-EM” (eLife, 2017).

The series deals with the molecule itself. Kind of series: cryo-EM structure; purified SUR1/Kir6.2 KATP channel in digitonin, 1 mM ATP (no Mg2+) and 1 µM glibenclamide; C4 symmetry imposed; 3.63 Å.

B1: rat Kir6.2 (natural protein)
chain: MLSRKGIIPEEYVLTRLAEDPTEPRYRTRERRARFVSKKGNCNVAHKNIREQGRFLQDVFTTLVDLKWPHTLLIFTMSFLCSWLLFAMVWWLIAFAHGDLAPGEGTNVPCVTSIHSFSSAFLFSIEVQVTIGFGGRMVTEECPLAILILIVQNIVGLMINAIMLGCIFMKTAQAHRRAETLIFSKHAVITLRHGRLCFMLRVGDLRKSMIISATIHMQVVRKTTSPEGEVVPLHQVDIPMENGVGGNSIFLVAPLIIYHVIDSNSPLYDLAPSDLHHHQDLEIIVILEGVVETTGITTQARTSYLADEILWGQRFVPIVAEEDGRYSVDYSKFGNTVKVPTPLCTARQLDEDRSLLDALTLASSRGPLRKRSVAVAKAKPKFSISPDSLS
notes: the final model holds residues 32-352, the distal N- and C-termini were not seen in the map; source: INS-1 clone 832/13 cells, infected with recombinant adenovirus, co-expressed with FLAG-SUR1; purified as the channel complex (digitonin, anti-FLAG M2 agarose, FLAG peptide elution)
For the protein B1, the “stoichiometry N” value was 4.

Usually stoichiometry N stands for a count of units in the complex or per binding partner.
